Patent US20250339531A1, “DUX4 POLYPEPTIDES AND NUCLEIC ACIDS FOR TREATING INFLAMMATORY AND AUTOIMMUNE CONDITIONS” (Fred Hutchinson Cancer Center, priority 2021, published 2025)

Assays:
[1] = target: KN motif and ankyrin repeat domain-containing protein 2 (Homo sapiens) (UniProt Q63ZY3); assay: anti-FLAG co-IP LC-MS, exp 3, +Dox
[2] = target: Elongation factor 1-alpha 1 (Homo sapiens) (UniProt P68104); assay: anti-FLAG co-IP LC-MS, exp 3, +Dox
[3] = target: Tubulin alpha-4A chain (Homo sapiens) (UniProt P68366); assay: anti-FLAG co-IP LC-MS, exp 3, +Dox
[4] = target: Endoplasmic reticulum chaperone BiP (Homo sapiens) (UniProt P11021); assay: anti-FLAG co-IP LC-MS, exp 3, +Dox
Vimentin (Homo sapiens) = Vimentin (Homo sapiens) (UniProt P08670); assay: anti-FLAG co-IP LC-MS, exp 3, +Dox
Sequence of Vimentin (Homo sapiens) (P08670 2-466 limits assumed): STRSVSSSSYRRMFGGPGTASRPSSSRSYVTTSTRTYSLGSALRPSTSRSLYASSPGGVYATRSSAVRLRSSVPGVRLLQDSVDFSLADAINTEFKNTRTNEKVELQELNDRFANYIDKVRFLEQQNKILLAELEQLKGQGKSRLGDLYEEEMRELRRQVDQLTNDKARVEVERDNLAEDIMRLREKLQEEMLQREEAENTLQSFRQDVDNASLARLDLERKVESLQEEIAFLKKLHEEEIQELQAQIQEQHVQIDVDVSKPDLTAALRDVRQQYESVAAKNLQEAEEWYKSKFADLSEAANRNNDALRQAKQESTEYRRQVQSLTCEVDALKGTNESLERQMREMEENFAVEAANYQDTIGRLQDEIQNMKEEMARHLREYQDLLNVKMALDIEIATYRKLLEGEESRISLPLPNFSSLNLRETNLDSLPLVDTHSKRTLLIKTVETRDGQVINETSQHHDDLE

[5] = target: Probable ATP-dependent RNA helicase DDX6 (Homo sapiens) (UniProt P26196); assay: anti-FLAG co-IP LC-MS, exp 3, +Dox
[6] = target: AP-2 complex subunit alpha-1 (Homo sapiens) (UniProt O95782); assay: anti-FLAG co-IP LC-MS, exp 3, +Dox
[7] = target: Tubulin beta-4B chain (Homo sapiens) (UniProt P68371); assay: anti-FLAG co-IP LC-MS, exp 3, +Dox
Sequence of Tubulin beta-4B chain (Homo sapiens) (P68371 whole entry): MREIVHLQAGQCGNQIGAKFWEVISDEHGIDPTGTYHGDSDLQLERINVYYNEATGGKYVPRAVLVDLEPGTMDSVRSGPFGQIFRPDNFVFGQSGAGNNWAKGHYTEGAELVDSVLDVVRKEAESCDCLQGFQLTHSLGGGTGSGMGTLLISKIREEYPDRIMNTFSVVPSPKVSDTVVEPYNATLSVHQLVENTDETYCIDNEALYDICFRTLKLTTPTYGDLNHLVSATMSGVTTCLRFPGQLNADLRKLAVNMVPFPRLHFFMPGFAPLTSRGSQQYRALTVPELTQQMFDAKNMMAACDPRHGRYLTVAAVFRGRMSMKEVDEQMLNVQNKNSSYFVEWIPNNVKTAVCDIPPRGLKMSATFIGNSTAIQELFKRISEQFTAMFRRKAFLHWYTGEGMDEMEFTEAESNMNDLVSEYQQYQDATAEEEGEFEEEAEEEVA

[8] = target: Ribosome-binding protein 1 (Homo sapiens) (UniProt Q9P2E9); assay: anti-FLAG co-IP LC-MS, exp 3, +Dox
[9] = target: Actin-related protein 3 (Homo sapiens) (UniProt P61158); assay: anti-FLAG co-IP LC-MS, exp 3, +Dox
[10] = target: 60S ribosomal protein L3 (Homo sapiens) (UniProt P39023); assay: anti-FLAG co-IP LC-MS, exp 3, +Dox
Caprin-1 (Homo sapiens) = Caprin-1 (Homo sapiens) (UniProt Q14444); assay: anti-FLAG co-IP LC-MS, exp 3, +Dox
[11] = target: 60S ribosomal protein L8 (Homo sapiens) (UniProt P62917); assay: anti-FLAG co-IP LC-MS, exp 3, +Dox
[12] = target: 40S ribosomal protein S8 (Homo sapiens) (UniProt P62241); assay: anti-FLAG co-IP LC-MS, exp 3, +Dox
[13] = target: Tubulin alpha-1B chain (Homo sapiens) (UniProt P68363); assay: anti-FLAG co-IP LC-MS, exp 3, +Dox
Sequence of Tubulin alpha-1B chain (Homo sapiens) (P68363 whole entry): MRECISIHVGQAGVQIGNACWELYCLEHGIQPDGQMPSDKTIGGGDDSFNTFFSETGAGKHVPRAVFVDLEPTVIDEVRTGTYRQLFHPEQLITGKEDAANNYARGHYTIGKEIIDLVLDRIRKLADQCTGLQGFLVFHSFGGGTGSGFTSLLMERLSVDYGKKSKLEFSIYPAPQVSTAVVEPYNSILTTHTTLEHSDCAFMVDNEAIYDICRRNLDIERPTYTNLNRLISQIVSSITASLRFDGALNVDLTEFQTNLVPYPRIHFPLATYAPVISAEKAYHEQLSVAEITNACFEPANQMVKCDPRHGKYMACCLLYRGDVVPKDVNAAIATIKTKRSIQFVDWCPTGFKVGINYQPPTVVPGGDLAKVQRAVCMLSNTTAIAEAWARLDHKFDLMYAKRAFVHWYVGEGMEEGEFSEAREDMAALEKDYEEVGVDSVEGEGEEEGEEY

[14] = target: 60S ribosomal protein L4 (Homo sapiens) (UniProt P36578); assay: anti-FLAG co-IP LC-MS, exp 3, +Dox
[15] = target: Nucleosome assembly protein 1-like 1 (Homo sapiens) (UniProt P55209); assay: anti-FLAG co-IP LC-MS, exp 3, +IFNg +Dox
[16] = target: 60S ribosomal protein L13 (Homo sapiens) (UniProt P26373); assay: anti-FLAG co-IP LC-MS, exp 3, +IFNg +Dox
[17] = target: Caveolae-associated protein 1 (Homo sapiens) (UniProt Q6NZI2); assay: anti-FLAG co-IP LC-MS, exp 3, +IFNg +Dox
Sequence of Caveolae-associated protein 1 (Homo sapiens) (Q6NZI2 whole entry): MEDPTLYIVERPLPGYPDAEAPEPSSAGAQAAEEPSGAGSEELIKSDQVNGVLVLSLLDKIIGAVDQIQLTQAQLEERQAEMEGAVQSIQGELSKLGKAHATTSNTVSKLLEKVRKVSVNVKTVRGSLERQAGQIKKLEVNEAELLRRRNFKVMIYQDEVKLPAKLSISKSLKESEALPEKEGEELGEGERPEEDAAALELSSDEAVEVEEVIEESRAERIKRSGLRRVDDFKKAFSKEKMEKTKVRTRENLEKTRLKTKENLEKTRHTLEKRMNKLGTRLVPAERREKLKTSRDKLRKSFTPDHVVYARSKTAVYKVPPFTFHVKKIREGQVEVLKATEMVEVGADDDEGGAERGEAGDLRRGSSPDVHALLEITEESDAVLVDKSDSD

[18] = target: Tubulin alpha chain (Homo sapiens) (UniProt F5H5D3); assay: anti-FLAG co-IP LC-MS, exp 3, +IFNg +Dox
Sequence of Tubulin alpha chain (Homo sapiens) (F5H5D3 entry or part of it limits assumed, form in doubt): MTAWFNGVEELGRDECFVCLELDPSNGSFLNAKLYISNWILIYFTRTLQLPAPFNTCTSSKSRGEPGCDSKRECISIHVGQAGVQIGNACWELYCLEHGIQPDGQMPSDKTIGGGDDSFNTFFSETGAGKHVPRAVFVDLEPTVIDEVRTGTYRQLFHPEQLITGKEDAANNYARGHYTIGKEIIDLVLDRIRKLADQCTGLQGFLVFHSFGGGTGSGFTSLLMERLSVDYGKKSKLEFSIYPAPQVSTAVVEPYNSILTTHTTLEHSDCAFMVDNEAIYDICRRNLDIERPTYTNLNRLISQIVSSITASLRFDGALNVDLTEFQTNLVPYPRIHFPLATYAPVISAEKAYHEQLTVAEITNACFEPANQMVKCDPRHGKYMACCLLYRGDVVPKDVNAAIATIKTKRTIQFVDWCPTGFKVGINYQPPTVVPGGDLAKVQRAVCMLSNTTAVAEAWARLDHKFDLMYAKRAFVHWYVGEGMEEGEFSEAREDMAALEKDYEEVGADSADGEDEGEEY

[19] = target: 40S ribosomal protein S6 (Homo sapiens) (UniProt P62753); assay: anti-FLAG co-IP LC-MS, exp 3, +IFNg +Dox
[20] = target: 40S ribosomal protein S4, X isoform (Homo sapiens) (UniProt P62701); assay: anti-FLAG co-IP LC-MS, exp 3, +IFNg +Dox
[21] = target: Polypyrimidine tract-binding protein 1 (Homo sapiens) (UniProt P26599); assay: anti-FLAG co-IP LC-MS, exp 3, +IFNg +Dox
[22] = target: Histone acetyltransferase type B catalytic subunit (Homo sapiens) (UniProt O14929); assay: anti-FLAG co-IP LC-MS, exp 3, +IFNg +Dox
[23] = target: Tubulin beta-4B chain (Homo sapiens) (UniProt P68371); assay: anti-FLAG co-IP LC-MS, exp 3, +IFNg +Dox
[24] = target: Procollagen-lysine, 2-oxoglutarate 5-dioxygenase 3 (Homo sapiens) (UniProt O60568); assay: anti-FLAG co-IP LC-MS, exp 3, +IFNg +Dox
Sequence of Procollagen-lysine, 2-oxoglutarate 5-dioxygenase 3 (Homo sapiens) (O60568 25-738 limits assumed): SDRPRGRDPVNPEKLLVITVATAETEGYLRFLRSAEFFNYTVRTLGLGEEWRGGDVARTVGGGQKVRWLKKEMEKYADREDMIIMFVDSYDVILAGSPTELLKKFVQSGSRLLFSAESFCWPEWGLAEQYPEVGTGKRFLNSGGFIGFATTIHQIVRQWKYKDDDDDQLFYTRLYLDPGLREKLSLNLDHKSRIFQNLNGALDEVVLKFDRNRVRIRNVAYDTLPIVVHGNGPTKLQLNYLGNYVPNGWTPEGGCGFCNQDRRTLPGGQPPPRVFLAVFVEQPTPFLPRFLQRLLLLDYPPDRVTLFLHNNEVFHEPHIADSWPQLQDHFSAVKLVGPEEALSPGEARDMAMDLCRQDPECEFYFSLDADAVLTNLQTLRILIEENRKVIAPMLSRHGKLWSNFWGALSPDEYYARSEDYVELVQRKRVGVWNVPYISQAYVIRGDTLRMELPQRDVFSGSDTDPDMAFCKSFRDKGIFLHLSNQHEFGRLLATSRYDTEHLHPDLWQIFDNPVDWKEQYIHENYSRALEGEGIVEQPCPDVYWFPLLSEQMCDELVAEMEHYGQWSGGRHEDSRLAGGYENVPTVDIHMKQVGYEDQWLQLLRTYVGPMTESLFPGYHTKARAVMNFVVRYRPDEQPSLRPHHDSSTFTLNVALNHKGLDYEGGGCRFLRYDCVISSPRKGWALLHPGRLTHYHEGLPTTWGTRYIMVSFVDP

[25] = target: Splicing factor 3B subunit 3 (Homo sapiens) (UniProt Q15393); assay: anti-FLAG co-IP LC-MS, exp 3, +IFNg +Dox
[26] = target: Neutral cholesterol ester hydrolase 1 (Homo sapiens) (UniProt Q6PIU2); assay: anti-FLAG co-IP LC-MS, exp 3, +IFNg +Dox
Sequence of Neutral cholesterol ester hydrolase 1 (Homo sapiens) (Q6PIU2 whole entry): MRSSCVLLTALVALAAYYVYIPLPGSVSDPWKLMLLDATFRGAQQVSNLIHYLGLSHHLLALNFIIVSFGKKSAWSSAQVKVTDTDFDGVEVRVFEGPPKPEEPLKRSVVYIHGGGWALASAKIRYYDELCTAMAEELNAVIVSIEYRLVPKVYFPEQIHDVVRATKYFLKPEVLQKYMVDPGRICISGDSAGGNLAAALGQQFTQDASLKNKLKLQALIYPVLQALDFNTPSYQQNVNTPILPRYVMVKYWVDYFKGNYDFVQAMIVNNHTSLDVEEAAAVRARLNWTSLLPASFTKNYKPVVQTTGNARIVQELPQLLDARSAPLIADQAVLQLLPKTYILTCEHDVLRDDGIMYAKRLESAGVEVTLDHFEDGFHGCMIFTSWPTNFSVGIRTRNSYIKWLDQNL

[27] = target: Sodium/potassium-transporting ATPase subunit alpha-1 (Homo sapiens) (UniProt P05023); assay: anti-FLAG co-IP LC-MS, exp 3, +IFNg +Dox
[28] = target: Stress-70 protein, mitochondrial (Homo sapiens) (UniProt P38646); assay: anti-FLAG co-IP LC-MS, exp 3, +IFNg +Dox
[29] = target: Importin subunit beta-1 (Homo sapiens) (UniProt Q14974); assay: anti-FLAG co-IP LC-MS, exp 3, +IFNg +Dox
Sequence of Importin subunit beta-1 (Homo sapiens) (Q14974 whole entry): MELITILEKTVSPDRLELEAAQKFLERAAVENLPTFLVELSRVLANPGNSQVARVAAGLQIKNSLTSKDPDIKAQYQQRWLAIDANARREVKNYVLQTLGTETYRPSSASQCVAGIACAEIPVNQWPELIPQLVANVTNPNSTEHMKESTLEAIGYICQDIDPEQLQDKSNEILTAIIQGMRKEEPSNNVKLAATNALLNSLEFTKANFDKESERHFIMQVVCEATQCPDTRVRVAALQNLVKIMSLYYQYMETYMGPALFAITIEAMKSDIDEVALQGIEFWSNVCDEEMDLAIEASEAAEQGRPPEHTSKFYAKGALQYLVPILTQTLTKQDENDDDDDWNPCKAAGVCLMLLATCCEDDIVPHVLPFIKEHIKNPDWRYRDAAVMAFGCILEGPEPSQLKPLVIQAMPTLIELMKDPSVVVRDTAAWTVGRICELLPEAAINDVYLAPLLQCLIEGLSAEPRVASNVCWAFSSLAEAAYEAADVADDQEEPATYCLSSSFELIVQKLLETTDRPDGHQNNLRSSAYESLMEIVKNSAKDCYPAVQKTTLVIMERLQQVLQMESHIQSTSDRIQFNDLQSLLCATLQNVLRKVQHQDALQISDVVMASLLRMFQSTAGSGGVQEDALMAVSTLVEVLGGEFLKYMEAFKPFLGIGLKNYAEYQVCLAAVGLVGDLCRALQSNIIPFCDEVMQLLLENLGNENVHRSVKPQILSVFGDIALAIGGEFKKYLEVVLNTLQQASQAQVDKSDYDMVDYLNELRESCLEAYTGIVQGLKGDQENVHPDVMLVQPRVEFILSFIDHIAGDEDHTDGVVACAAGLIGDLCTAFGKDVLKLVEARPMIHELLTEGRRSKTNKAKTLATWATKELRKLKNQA

[30] = target: 60S ribosomal protein L8 (Homo sapiens) (UniProt P62917); assay: anti-FLAG co-IP LC-MS, exp 3, +IFNg +Dox
[31] = target: Prelamin-A/C (Homo sapiens) (UniProt P02545); assay: anti-FLAG co-IP LC-MS, exp 3, +IFNg +Dox
[32] = target: Protein disulfide-isomerase A3 (Fragment) (Homo sapiens) (UniProt P30101); assay: anti-FLAG co-IP LC-MS, exp 3, +IFNg +Dox
[33] = target: Ras GTPase-activating protein-binding protein 2 (Homo sapiens) (UniProt Q9UN86); assay: anti-FLAG co-IP LC-MS, exp 3, +IFNg +Dox
[34] = target: Eukaryotic translation initiation factor 3 subunit A (Homo sapiens) (UniProt Q14152); assay: anti-FLAG co-IP LC-MS, exp 3, +IFNg +Dox
[35] = target: 60S ribosomal protein L7a (Homo sapiens) (UniProt P62424); assay: anti-FLAG co-IP LC-MS, exp 3, +IFNg +Dox

Sequence of Elongation factor 1-alpha 1 (Homo sapiens) (P68104 2-462 limits assumed): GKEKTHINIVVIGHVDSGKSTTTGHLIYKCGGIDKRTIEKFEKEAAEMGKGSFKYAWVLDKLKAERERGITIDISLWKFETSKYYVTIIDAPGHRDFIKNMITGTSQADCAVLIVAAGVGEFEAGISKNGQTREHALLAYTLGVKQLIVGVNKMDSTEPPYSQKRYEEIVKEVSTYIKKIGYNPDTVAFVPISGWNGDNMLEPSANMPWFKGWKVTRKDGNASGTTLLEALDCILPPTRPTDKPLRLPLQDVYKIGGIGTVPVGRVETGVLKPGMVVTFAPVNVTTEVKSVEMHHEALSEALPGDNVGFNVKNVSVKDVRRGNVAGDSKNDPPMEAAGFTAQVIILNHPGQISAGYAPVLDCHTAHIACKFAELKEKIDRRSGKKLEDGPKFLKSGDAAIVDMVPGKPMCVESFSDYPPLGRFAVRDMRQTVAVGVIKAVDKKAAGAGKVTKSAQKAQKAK

i3XFLAG-NLS-CTDaa154-424
PSMs [1]: 3 PSMs | PSMs [2]: 9 PSMs | PSMs [3]: 14 PSMs | PSMs [4]: 22 PSMs | PSMs (Vimentin (Homo sapiens)): 42 PSMs | PSMs [5]: 2 PSMs | PSMs [6]: 10 PSMs | PSMs [7]: 42 PSMs | PSMs [8]: 24 PSMs | PSMs [9]: 5 PSMs | PSMs [10]: 3 PSMs | PSMs (Caprin-1 (Homo sapiens)): 5 PSMs | PSMs [11]: 3 PSMs | PSMs [12]: 2 PSMs | PSMs [13]: 22 PSMs | PSMs [14]: 10 PSMs | PSMs [15]: 5 PSMs | PSMs [16]: 7 PSMs | PSMs [17]: 3 PSMs | PSMs [18]: 47 PSMs | PSMs [19]: 3 PSMs | PSMs [20]: 2 PSMs | PSMs [21]: 2 PSMs | PSMs [22]: 3 PSMs | PSMs [23]: 70 PSMs | PSMs [24]: 2 PSMs | PSMs [25]: 3 PSMs | PSMs [26]: 11 PSMs | PSMs [27]: 3 PSMs | PSMs [28]: 10 PSMs | PSMs [29]: 5 PSMs | PSMs [30]: 2 PSMs | PSMs [31]: 3 PSMs | PSMs [32]: 2 PSMs | PSMs [33]: 3 PSMs | PSMs [34]: 2 PSMs | PSMs [35]: 5 PSMs
